This note sets out measurements from PMC4546403.

The labels stand for the following.
B1: Drosophila Smo (dSmo): dSmoNQ5 (protein)
parent chain: MQYLNFPRMPNIMMFLEVAILCLWVVADASASSAKFGSTTPASAQQSDVELEPINGTLNYRLYAKKGRDDKPWFDGLDSRHIQCVRRARCYPTSNATNTCFGSKLPYELSSLDLTDFHTEKELNDKLNDYYALKHVPKCWAAIQPFLCAVFKPKCEKINGEDMVYLPSYEMCRITMEPCRILYNTTFFPKFLRCNETLFPTKCTNGARGMKFNGTGQCLSPLVPTDTSASYYPGIEGCGVRCKDPLYTDDEHRQIHKLIGWAGSICLLSNLFVVSTFFIDWKNANKYPAVIVFYINLCFLIACVGWLLQFTSGSREDIVCRKDGTLRHSEPTAGENLSCIVIFVLVYYFLTAGMVWFVFLTYAWHWRAMGHVQDRIDKKGSYFHLVAWSLPLVLTITTMAFSEVDGNSIVGICFVGYINHSMRAGLLLGPLCGVILIGGYFITRGMVMLFGLKHFANDIKSTSASNKIHLIIMRMGVCALLTLVFILVAIACHVTEFRHADEWAQSFRQFIICKISSVFEEKSSCRIENRPSVGVLQLHLLCLFSSGIVMSTWCWTPSSIETWKRYIRKKCGKEVVEEVKMPKHKVIAQTWAKRKDFEDKGRLSITLYNTHTDPVGLNFDVNDLNSSETNDISSTWAAYLPQCVKRRMALTGAATGNSSSHGPRKNSLDSEISVSVRHVSVESRRNSVDSQVSVKIAEMKTKVASRSRGKHGGSSSNRRTQRRRDYIAAATGKSSRRRESSTSVESQVIALKKTTYPNASHKVGVFAHHSSKKQHNYTSSMKRRTANAGLDPSILNEFLQKNGDFIFPFLQNQDMSSSSEEDNSRASQKIQDLNVVVKQQEISEDDHDGIKIEELPNSKQVALENFLKNIKKSNESNSNRHSRNSARSQSKKSQKRHLKNPAADLDFRKDCVKYRSNDSLSCSSEELDVALDVGSLLNSSFSGISMGKPHSRNSKTSCDVGIQANPFELVPSYGEDELQQAMRLLNAASRQRTEAANEDFGGTELQGLLGHSHRHQREPTFMSESDKLKMLLLPSK
B2: Drosophila Smo (dSmo): dSmoN336Q (protein)
parent chain: B1 parent chain
B3: Drosophila Smo (dSmo): N195Q (protein)
parent chain: B1 parent chain
B4: Drosophila Smo (dSmo): N213Q,N336Q (protein)
parent chain: B1 parent chain
B5: Drosophila Smo (dSmo): N336Q (protein)
parent chain: B1 parent chain
B6: Drosophila Smo (dSmo): N95Q (protein)
parent chain: B1 parent chain
B7: Drosophila Smo (dSmo): N213Q (protein)
parent chain: B1 parent chain
B8: Drosophila Smo (dSmo): N184Q,N336Q (protein)
parent chain: B1 parent chain
B9: Drosophila Smo (dSmo): N95Q,N336Q (protein)
parent chain: B1 parent chain
B10: Drosophila Smo (dSmo): N195Q,N336Q (protein)
parent chain: B1 parent chain
B11: Drosophila Smo (dSmo): N184Q (protein)
parent chain: B1 parent chain
B12: Drosophila Smo (dSmo): dSmoN213Q,N336Q (protein)
parent chain: B1 parent chain

The first data set is described as follows: western blot of Cl8 cell lysates. The settings on record: glycan lost; control: wild type dSmo. A general note: A western blot detects proteins with antibodies after separation by electrophoresis.
For the protein B1, the expression_or_secretion entry was “increases”.

Regarding B2, the expression_or_secretion entry is given as “increases”.

The nature of a further data set: cycloheximide chase, Cl8 cells, densitometry. The settings on record: glycan lost; control: wild type dSmo.
As for B1, the “degradation_or_half_life, half_life” value is on record as “increases, ~4 vs ~1”.

A further data set is described as follows: immunofluorescence, Hh-induced plasma membrane vs ER marker, Cl8. The settings on record: glycan lost; control: wild type dSmo.
For B1, the localisation_or_trafficking result is “abolishes”.

Take B3: the localisation_or_trafficking entry was “no change”.

With B4, the localisation_or_trafficking entry is “decreases”.

With B5, the localisation_or_trafficking entry is “abolishes”.

As to B6, the localisation_or_trafficking entry is given as “no change”.

With B7, the localisation_or_trafficking result was “no change”.

As for B8, the localisation_or_trafficking result is “decreases”.

On to B9, for which the localisation_or_trafficking result is reported as “decreases”.

As to B10, the localisation_or_trafficking result is recorded as “decreases”.

Regarding B11, the localisation_or_trafficking entry is recorded as “no change”.

The nature of another data set: EndoH-resistant post-ER vs EndoH-sensitive ER fraction, western. The settings on record: glycan lost; control: wild type dSmo.
For the protein B4, the localisation_or_trafficking result is listed as “decreases”.

As for B5, the localisation_or_trafficking entry is “decreases”.

With B7, the localisation_or_trafficking entry is “no change”.

A further data set is described as follows: biotin-maleimide free-thiol labelling, NeutrAvidin capture (disulfide integrity). The settings on record: glycan lost; control: wild type dSmo.
As for B4, the stability_or_folding entry is recorded as “decreases”.

With B5, the stability_or_folding entry is reported as “decreases”.

A short description of the next data set: western blot of wing imaginal disc lysates. The settings on record: glycan lost; control: wild type dSmo transgene.
For the protein B1, the expression_or_secretion entry is on record as “no change”.

Take B12: the expression_or_secretion entry is on record as “increases”.
